Data: article PMC9687869, “Redox Regulation of Signaling Complex between Caveolin-1 and Neuronal Calcium Sensor Recoverin” (Biomolecules, 2022)
Where a chain is given by its changes, count along the chain named. Names may count otherwise.

T1: recombinant myristoylated recoverin, reduced monomer (Rec) (UniProt P21457 1-202, N-terminal myristoyl group (myristoylation rate more than 95%))
T1 construct: recoverin, photoreceptor neuronal calcium sensor; also called intact recoverin; wild-type recoverin
T1 sequence (looked up): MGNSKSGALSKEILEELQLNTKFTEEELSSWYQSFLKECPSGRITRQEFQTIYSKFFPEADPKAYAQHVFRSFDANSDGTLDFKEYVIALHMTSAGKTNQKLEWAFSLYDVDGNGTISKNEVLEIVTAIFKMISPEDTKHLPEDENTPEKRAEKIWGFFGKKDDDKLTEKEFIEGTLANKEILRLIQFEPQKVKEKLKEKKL

B1: N-terminal fragment of caveolin-1 M1-R101 with N-terminal His6-tag (Cav) (domain or fragment, UniProt Q03135 1-101, looked up)
chain: MSGGKYVDSEGHLYTVPIREQGNIYKPNNKAMADELSEKQVYDAHTKEIDLVNRDPKHLNDDVVKIDFEDVIAEPEGTHSFDGIWKASFTTFTVTKYWFYR
notes: caveolin-1, N-terminal domain and oligomerization domain, residues M1-R101; Forms homogeneous oligomers in solution by DLS; the number of copies was not measured; It names pET-22b and an N-terminal His6-tag; also called Cav (1-101 aa) fragment; caveolin-1 fragment; source: E. coli BL21 Star (DE3), solubilised in guanidine hydrochloride, dialysed, purified (Ni-NTA)
B2: N-terminally tagged caveolin-1 fragment M1-R101 with Y14E substitution (CavE) (domain or fragment, UniProt Q03135 1-101, looked up)
chain: B1 chain with Y14E
notes: caveolin-1, residues M1-R101 with Y14E, which mimics phosphorylation at Y14; built on Cav; Forms larger oligomeric particles than Cav by DLS; also called caveolin-1 mutant Y14E; source: E. coli BL21 Star (DE3), solubilised in guanidine hydrochloride, dialysed, purified (Ni-NTA)
B3: disulfide dimer of recoverin (dRec) (natural protein)
chain: GNSKSGALSKEILEELQLNTKFTEEELSSWYQSFLKECPSGRITRQEFQTIYSKFFPEADPKAYAQHVFRSFDANSDGTLDFKEYVIALHMTSAGKTNQKLEWAFSLYDVDGNGTISKNEVLEIVTAIFKMISPEDTKHLPEDENTPEKRAEKIWGFFGKKDDDKLTEKEFIEGTLANKEILRLIQFEPQKVKEKLKEKKL
modifications: N-terminal myristoyl group; disulfide between the cysteine-39 residues of the two chains
B4: recoverin C39D mutant (Rec-C39D) (natural protein, UniProt P21457 1-202, looked up)
chain: T1 sequence (looked up) with C39D
modifications: N-terminal myristoyl group (myristoylation rate more than 95%)
notes: recoverin with C39D, which mimics oxidation of cysteine-39 to a sulfenic/sulfinic/sulfonic group; also called thiol oxidation mimicking mutant; oxidized monomer mimic

Legend:
Details in all cases: both partners purified
[1] = molecular target: B3; assay: SPR; Cav or CavE immobilised by amine coupling (ProteOn GLH chip); analyte 2.5-30 uM recoverin form; 10 mM HEPES pH 7.4, 150 mM NaCl, 2 mM DTT (none for dRec), 0.05% TWEEN 20, calcium-free (1 mM EDTA in the methods, 2 mM EGTA in Table 2); 25 C; heterogeneous ligand model
[2] = molecular target: B4; assay: as above
[3] = molecular target: T1, recombinant myristoylated recoverin, …; assay: as above
[4] = molecular target: B4; assay: SPR; Cav or CavE immobilised by amine coupling (ProteOn GLH chip); analyte 2.5-30 uM recoverin form; 10 mM HEPES pH 7.4, 150 mM NaCl, 2 mM DTT (none for dRec), 0.05% TWEEN 20, with calcium (1 mM CaCl2 in the methods, 2 mM Ca2+ in Table 2); 25 C; heterogeneous ligand model
[5] = molecular target: B1; assay: pull-down; Cav or CavE covalently attached to BrCN-activated Sepharose CL-4B; 50 ug recoverin form; 20 mM Tris-HCl pH 7.5, 100 mM NaCl, 2 mM MgCl2, 2 mM EGTA (calcium-free); 30 min at room temperature; bound protein analysed by SDS-PAGE

Binder | Kd [1] [nM] | koff [1] [s⁻¹] | Kd [2] [nM] | koff [2] [s⁻¹] | Kd [3] [nM] | koff [3] [s⁻¹] | Kd [4] [nM] | koff [4] [s⁻¹] | fold increase of the interaction against Rec (pull-down) [5] [fold]
B1 | 48.6 ± 1.1 | 2.44e-05 | 140 ± 44 | 0.000117 | 490 ± 160 | 0.000105 | 376 ± 173 | 0.000186 | –
B2 | 218 ± 87 | 8.08e-05 | 329 ± 145 | 0.000172 | 1110 ± 66 | 8.81e-05 | 629 ± 257 | 0.000202 | –
B3 | – | – | – | – | – | – | – | – | 2 to 3
B4 | – | – | – | – | – | – | – | – | 2 to 3
